Data published in paper PMC5550493, “The Conserved Lysine-265 Allosterically Modulates Nucleotide- and Actin-binding Site Coupling in Myosin-2” (Scientific Reports, 2017).

Assays:
[1] = molecular target: F-actin (rabbit skeletal muscle actin) (rabbit, UniProt P68135 1-377); test: cell-based or functional assay
[2] = molecular target: Pyrene-labelled F-actin (rabbit skeletal muscle actin) (rabbit, UniProt P68135 1-377, pyrene label); test: other fluorescence titration; stopped-flow, pyrene-actin fluorescence; k+A from the slope of observed rate constants against actin concentration; k-A by chasing pyrene-actin from the complex with a large excess of unlabelled F-actin; KA calculated as k-A/k+A; 25 mM MOPS, 100 mM KCl, 5 mM MgCl2, 1 mM DTT, pH 7.0, 20 °C; details: both partners purified

k cat/K app, calculated from k cat and K app of the actin-activated steady-state ATPase [1] [M⁻¹ s⁻¹]	Kd [2] [nM]	koff [2] [s⁻¹]	kon [2] [M⁻¹ s⁻¹]	Binder
30000	3.6	0.0049	1.37e+06	Dd myosin-2 M765-2R wild type (Dd myosin-2 motor domain fused to two Dd α-actinin repeats) (other, Dictyostelium discoideum myosin-2 heavy chain (mhcA gene), first 765 residues (motor domain); Dictyostelium discoideum α-actinin, codon 264 to 505 (two α-actinin repeats, artificial lever arm); Expression vector based on pDXA-3H; also called WT; M765-2R WT; source: Dictyostelium discoideum AX3-Orf+ cells, purified (Ni-NTA)) MNPIHDRTSDYHKYLKVKQGDSDLFKLTVSDKRYIWYNPDPKERDSYECGEIVSETSDSFTFKTVDGQDRQVKKDDANQRNPIKFDGVEDMSELSYLNEPAVFHNLRVRYNQDLIYTYSGLFLVAVNPFKRIPIYTQEMVDIFKGRRRNEVAPHIFAISDVAYRSMLDDRQNQSLLITGESGAGKTENTKKVIQYLASVAGRNQANGSGVLEQQILQANPILEAFGNAKTTRNNNSSRFGKFIEIQFNSAGFISGASIQSYLLEKSRVVFQSETERNYHIFYQLLAGATAEEKKALHLAGPESFNYLNQSGCVDIKGVSDSEEFKITRQAMDIVGFSQEEQMSIFKIIAGILHLGNIKFEKGAGEGAVLKDKTALNAASTVFGVNPSVLEKALMEPRILAGRDLVAQHLNVEKSSSSRDALVKALYGRLFLWLVKKINNVLCQERKAYFIGVLDISGFEIFKVNSFEQLCINYTNEKLQQFFNHHMFKLEQEEYLKEKINWTFIDFGLDSQATIDLIDGRQPPGILALLDEQSVFPNATDNTLITKLHSHFSKKNAKYEEPRFSKTEFGVTHYAGQVMYEIQDWLEKNKDPLQQDLELCFKDSSDNVVTKLFNDPNIASRAKKGANFITVAAQYKEQLASLMATLETTNPHFVRCIIPNNKQLPAKLEDKVVLDQLRCNGVLEGIRITRKGFPNRIIYADFVKRYYLLAPNVPRDAEDSQKATDAVLKHLNIDPEQYRFGITKIFFRAGQLARIEEAREQRISEILEQTKSDYLKRANELVQWINDKQASLESRDFGDSIESVQSFMNAHKEYKKTEKPPKGQEVSELEAIYNSLQTKLRLIKREPFVAPAGLTPNEIDSTWSALEKAEQEHAEALRIELKRQKKIAVLLQKYNRILKKLENWATTKSVYLGSNETGDSITAVQAKLKNLEAFDGECQSLEGQSNSDLLSILAQLTELNYNGVPELTERKDTFFAQQWTGVKSSAETYKNTLLAELERLQKIEDSLV
19000	7.6	0.0078	1.02e+06	Dd myosin-2 M765-2R K265Q (other, Dictyostelium discoideum myosin-2 heavy chain (mhcA gene), first 765 residues (motor domain), with K265Q; Dictyostelium discoideum α-actinin, codon 264 to 505 (two α-actinin repeats, artificial lever arm); Point mutant of the fusion construct m1; source: Dictyostelium discoideum AX3-Orf+ cells, purified (Ni-NTA)) MNPIHDRTSDYHKYLKVKQGDSDLFKLTVSDKRYIWYNPDPKERDSYECGEIVSETSDSFTFKTVDGQDRQVKKDDANQRNPIKFDGVEDMSELSYLNEPAVFHNLRVRYNQDLIYTYSGLFLVAVNPFKRIPIYTQEMVDIFKGRRRNEVAPHIFAISDVAYRSMLDDRQNQSLLITGESGAGKTENTKKVIQYLASVAGRNQANGSGVLEQQILQANPILEAFGNAKTTRNNNSSRFGKFIEIQFNSAGFISGASIQSYLLEQSRVVFQSETERNYHIFYQLLAGATAEEKKALHLAGPESFNYLNQSGCVDIKGVSDSEEFKITRQAMDIVGFSQEEQMSIFKIIAGILHLGNIKFEKGAGEGAVLKDKTALNAASTVFGVNPSVLEKALMEPRILAGRDLVAQHLNVEKSSSSRDALVKALYGRLFLWLVKKINNVLCQERKAYFIGVLDISGFEIFKVNSFEQLCINYTNEKLQQFFNHHMFKLEQEEYLKEKINWTFIDFGLDSQATIDLIDGRQPPGILALLDEQSVFPNATDNTLITKLHSHFSKKNAKYEEPRFSKTEFGVTHYAGQVMYEIQDWLEKNKDPLQQDLELCFKDSSDNVVTKLFNDPNIASRAKKGANFITVAAQYKEQLASLMATLETTNPHFVRCIIPNNKQLPAKLEDKVVLDQLRCNGVLEGIRITRKGFPNRIIYADFVKRYYLLAPNVPRDAEDSQKATDAVLKHLNIDPEQYRFGITKIFFRAGQLARIEEAREQRISEILEQTKSDYLKRANELVQWINDKQASLESRDFGDSIESVQSFMNAHKEYKKTEKPPKGQEVSELEAIYNSLQTKLRLIKREPFVAPAGLTPNEIDSTWSALEKAEQEHAEALRIELKRQKKIAVLLQKYNRILKKLENWATTKSVYLGSNETGDSITAVQAKLKNLEAFDGECQSLEGQSNSDLLSILAQLTELNYNGVPELTERKDTFFAQQWTGVKSSAETYKNTLLAELERLQKIEDSLV
15000	10.1	0.0113	1.11e+06	Dd myosin-2 M765-2R K265E (other, Dictyostelium discoideum myosin-2 heavy chain (mhcA gene), first 765 residues (motor domain), with K265E; Dictyostelium discoideum α-actinin, codon 264 to 505 (two α-actinin repeats, artificial lever arm); Point mutant of the fusion construct m1; source: Dictyostelium discoideum AX3-Orf+ cells, purified (Ni-NTA)) MNPIHDRTSDYHKYLKVKQGDSDLFKLTVSDKRYIWYNPDPKERDSYECGEIVSETSDSFTFKTVDGQDRQVKKDDANQRNPIKFDGVEDMSELSYLNEPAVFHNLRVRYNQDLIYTYSGLFLVAVNPFKRIPIYTQEMVDIFKGRRRNEVAPHIFAISDVAYRSMLDDRQNQSLLITGESGAGKTENTKKVIQYLASVAGRNQANGSGVLEQQILQANPILEAFGNAKTTRNNNSSRFGKFIEIQFNSAGFISGASIQSYLLEESRVVFQSETERNYHIFYQLLAGATAEEKKALHLAGPESFNYLNQSGCVDIKGVSDSEEFKITRQAMDIVGFSQEEQMSIFKIIAGILHLGNIKFEKGAGEGAVLKDKTALNAASTVFGVNPSVLEKALMEPRILAGRDLVAQHLNVEKSSSSRDALVKALYGRLFLWLVKKINNVLCQERKAYFIGVLDISGFEIFKVNSFEQLCINYTNEKLQQFFNHHMFKLEQEEYLKEKINWTFIDFGLDSQATIDLIDGRQPPGILALLDEQSVFPNATDNTLITKLHSHFSKKNAKYEEPRFSKTEFGVTHYAGQVMYEIQDWLEKNKDPLQQDLELCFKDSSDNVVTKLFNDPNIASRAKKGANFITVAAQYKEQLASLMATLETTNPHFVRCIIPNNKQLPAKLEDKVVLDQLRCNGVLEGIRITRKGFPNRIIYADFVKRYYLLAPNVPRDAEDSQKATDAVLKHLNIDPEQYRFGITKIFFRAGQLARIEEAREQRISEILEQTKSDYLKRANELVQWINDKQASLESRDFGDSIESVQSFMNAHKEYKKTEKPPKGQEVSELEAIYNSLQTKLRLIKREPFVAPAGLTPNEIDSTWSALEKAEQEHAEALRIELKRQKKIAVLLQKYNRILKKLENWATTKSVYLGSNETGDSITAVQAKLKNLEAFDGECQSLEGQSNSDLLSILAQLTELNYNGVPELTERKDTFFAQQWTGVKSSAETYKNTLLAELERLQKIEDSLV
20000	7.5	0.0104	1.38e+06	Dd myosin-2 M765-2R K265A (other, Dictyostelium discoideum myosin-2 heavy chain (mhcA gene), first 765 residues (motor domain), with K265A; Dictyostelium discoideum α-actinin, codon 264 to 505 (two α-actinin repeats, artificial lever arm); Point mutant of the fusion construct m1; source: Dictyostelium discoideum AX3-Orf+ cells, purified (Ni-NTA)) MNPIHDRTSDYHKYLKVKQGDSDLFKLTVSDKRYIWYNPDPKERDSYECGEIVSETSDSFTFKTVDGQDRQVKKDDANQRNPIKFDGVEDMSELSYLNEPAVFHNLRVRYNQDLIYTYSGLFLVAVNPFKRIPIYTQEMVDIFKGRRRNEVAPHIFAISDVAYRSMLDDRQNQSLLITGESGAGKTENTKKVIQYLASVAGRNQANGSGVLEQQILQANPILEAFGNAKTTRNNNSSRFGKFIEIQFNSAGFISGASIQSYLLEASRVVFQSETERNYHIFYQLLAGATAEEKKALHLAGPESFNYLNQSGCVDIKGVSDSEEFKITRQAMDIVGFSQEEQMSIFKIIAGILHLGNIKFEKGAGEGAVLKDKTALNAASTVFGVNPSVLEKALMEPRILAGRDLVAQHLNVEKSSSSRDALVKALYGRLFLWLVKKINNVLCQERKAYFIGVLDISGFEIFKVNSFEQLCINYTNEKLQQFFNHHMFKLEQEEYLKEKINWTFIDFGLDSQATIDLIDGRQPPGILALLDEQSVFPNATDNTLITKLHSHFSKKNAKYEEPRFSKTEFGVTHYAGQVMYEIQDWLEKNKDPLQQDLELCFKDSSDNVVTKLFNDPNIASRAKKGANFITVAAQYKEQLASLMATLETTNPHFVRCIIPNNKQLPAKLEDKVVLDQLRCNGVLEGIRITRKGFPNRIIYADFVKRYYLLAPNVPRDAEDSQKATDAVLKHLNIDPEQYRFGITKIFFRAGQLARIEEAREQRISEILEQTKSDYLKRANELVQWINDKQASLESRDFGDSIESVQSFMNAHKEYKKTEKPPKGQEVSELEAIYNSLQTKLRLIKREPFVAPAGLTPNEIDSTWSALEKAEQEHAEALRIELKRQKKIAVLLQKYNRILKKLENWATTKSVYLGSNETGDSITAVQAKLKNLEAFDGECQSLEGQSNSDLLSILAQLTELNYNGVPELTERKDTFFAQQWTGVKSSAETYKNTLLAELERLQKIEDSLV
